# Measurements as given in paper PMC9823235 (The Journal of Biological Chemistry, 2022).
# B1: B subunit of Stx2a ([change]), pentameric (natural protein)
# chain: ADCAKGKIEFSKYNEDDTFTVKVDGKEYWTSRWNLQPLLQSAQLTGMTVTIKSSTCESGSGFAEVQFNND
# Target: the molecule itself
# Assay: cryo-EM structure
protein,measurement,value
B1,stoichiometry N,5
